Numbering of substitutions follows the chain as printed.
Experiments:
[1] = molecular target: HpNikR K31A (Helicobacter pylori G27, UniProt A1YSQ9 1-148, K31A); assay: fluorescence anisotropy; Ni(II)-bound; FA: 5 nM DNA, 20 mM Tris pH 7.6, 100 mM NaCl, 3 mM MgSO4, temperature not stated (Ni loading 1.2 eq NiSO4 per monomer at RT). EMSA: 20 mM Tris pH 7.5, 100 mM KCl, 3 mM MgCl2, 0.1% IGEPAL, 5% glycerol, 0.1 mg/ml herring sperm DNA, RT; gel with 800 uM NiSO4 at 4 C; conditions: protein: recombinant; tags: none stated; chain copies: 4; label: fluorescein on internal thymine (T14 of strand 1); blunt
[2] = molecular target: HpNikR Δ3aa (Helicobacter pylori G27, UniProt A1YSQ9 1-58+62-148, internal_change); assay: as above; conditions: protein: recombinant; tags: none stated; chain copies: 4; label: fluorescein on internal thymine (T14 of strand 1); blunt
[3] = molecular target: HpNikR E62A (Helicobacter pylori G27, UniProt A1YSQ9 1-148, E62A); assay: as above; conditions: protein: recombinant; tags: none stated; chain copies: 4; label: fluorescein on internal thymine (T14 of strand 1); blunt
[4] = molecular target: HpNikR Q81A (Helicobacter pylori G27, UniProt A1YSQ9 1-148, Q81A); assay: as above; conditions: protein: recombinant; tags: none stated; chain copies: 4; label: fluorescein on internal thymine (T14 of strand 1); blunt
[5] = molecular target: HpNikR T92A (Helicobacter pylori G27, UniProt A1YSQ9 1-148, T92A); assay: as above; conditions: protein: recombinant; tags: none stated; chain copies: 4; label: fluorescein on internal thymine (T14 of strand 1); blunt
[6] = molecular target: T1, HpNikR WT (Helicobacter pylori G27 (from vector …, UniProt A1YSQ9 1-148)); assay: as above; conditions: protein: recombinant; tags: none stated (untagged purification); chain copies: 4; label: fluorescein on internal thymine (T14 of strand 1); blunt
T1 sequence: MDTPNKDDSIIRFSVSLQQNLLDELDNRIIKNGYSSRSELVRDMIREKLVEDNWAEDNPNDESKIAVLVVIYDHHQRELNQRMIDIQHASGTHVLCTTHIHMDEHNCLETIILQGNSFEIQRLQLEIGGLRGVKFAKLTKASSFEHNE

[7] = molecular target: T2, HpNikR N32A (Helicobacter pylori G27, UniProt A1YSQ9 1-148, N32A); assay: as above; conditions: protein: recombinant; tags: none stated; chain copies: 4; label: fluorescein on internal thymine (T14 of strand 1); blunt
[8] = molecular target: HpNikR K140A (Helicobacter pylori G27, UniProt A1YSQ9 1-148, K140A); assay: as above; conditions: protein: recombinant; tags: none stated; chain copies: 4; label: fluorescein on internal thymine (T14 of strand 1); blunt
[9] = molecular target: HpNikR E56A (Helicobacter pylori G27, UniProt A1YSQ9 1-148, E56A); assay: as above; conditions: protein: recombinant; tags: none stated; chain copies: 4; label: fluorescein on internal thymine (T14 of strand 1); blunt
[10] = molecular target: T2, HpNikR N32A; assay: fluorescence anisotropy; apo (no Ni); FA: 5 nM DNA, 20 mM Tris pH 7.6, 100 mM NaCl, 3 mM MgSO4, temperature not stated (Ni loading 1.2 eq NiSO4 per monomer at RT). EMSA: 20 mM Tris pH 7.5, 100 mM KCl, 3 mM MgCl2, 0.1% IGEPAL, 5% glycerol, 0.1 mg/ml herring sperm DNA, RT; gel with 800 uM NiSO4 at 4 C; conditions: protein: recombinant; tags: none stated; chain copies: 4; label: fluorescein on internal thymine (T14 of strand 1); blunt

B1: ureA promoter 32 bp (FA) (dsDNA)
DNA 1: ATATAACACTAATTCATTTTAAATAATAATTA
DNA 2: TAATTATTATTTAAAATGAATTAGTGTTATAT
How did the Kd [1] turn out when B1 was run?
Its Kd is 6.8 ± 1 nM.

And the Kd [2]?
The Kd was 4.4 ± 1.3 nM.

What about the Kd [3] of the same binder?
Its Kd is 10.1 ± 1.1 nM.

And the Kd [4]?
The Kd was 6.5 ± 1 nM.

And the Kd [5]?
The Kd was 3.6 ± 0.2 nM.

And the Kd [6]?
Its Kd is 4.5 ± 0.6 nM.

What about the Kd [7] of the same binder?
The Kd was 4.8 ± 0.9 nM.

And the Kd [8]?
The Kd was 63 ± 5.6 nM.

And the Kd [9]?
The Kd was 5.4 ± 0.1 nM.

And the Kd [10]?
Its Kd is 1600 ± 400 nM.

B2: ureA-perf promoter 32 bp (dsDNA)
DNA 1: B1 DNA 1 with A6T, C7T, C9T
DNA 2: B1 DNA 2 with G24A, G26A, T27A
How did the Kd [1] turn out when B2 was run?
Its Kd is 4.1 ± 1 nM.

What about the Kd [3] of the same binder?
Its Kd is 2.9 ± 0.9 nM.

And the Kd [4]?
Its Kd is 3.9 ± 1.4 nM.

And the Kd [5]?
Its Kd is 2.6 ± 0.5 nM.

And the Kd [6]?
The Kd was 4.7 ± 0.4 nM.

What about the Kd [7] of the same binder?
Its Kd is 1.3 ± 0.4 nM.

And the Kd [9]?
Its Kd is 5.9 ± 0.8 nM.

What about the Kd [10] of the same binder?
The Kd was 1900 ± 700 nM.
